# Numbering of substitutions follows the chain as printed.
# T1: human FcγRIIaR extracellular domain, His-tagged (human, UniProt P12318 34-217)
# T1 construct: also called human FcγRIIa (type R); FcgRIIaR; not shown: C-terminal His-tag
# T1 chain: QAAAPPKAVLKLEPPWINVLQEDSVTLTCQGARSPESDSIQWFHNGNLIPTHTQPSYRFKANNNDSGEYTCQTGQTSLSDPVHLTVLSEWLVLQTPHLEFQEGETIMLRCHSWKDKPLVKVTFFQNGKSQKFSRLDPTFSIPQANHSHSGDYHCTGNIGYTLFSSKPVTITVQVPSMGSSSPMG
# T2: human FcγRIIaH extracellular domain, His-tagged (human, UniProt P12318 34-217)
# T2 construct: also called human FcγRIIa (type H); FcgRIIaH; not shown: C-terminal His-tag
# T2 sequence: T1 chain with R134H
# T3: cynomolgus monkey FcγRIIa3 extracellular domain, His-tagged (cynomolgus monkey)
# T3 construct: also called cyno FcγRIIa3; FcgRIIa3; not shown: C-terminal His-tag
# T3 chain: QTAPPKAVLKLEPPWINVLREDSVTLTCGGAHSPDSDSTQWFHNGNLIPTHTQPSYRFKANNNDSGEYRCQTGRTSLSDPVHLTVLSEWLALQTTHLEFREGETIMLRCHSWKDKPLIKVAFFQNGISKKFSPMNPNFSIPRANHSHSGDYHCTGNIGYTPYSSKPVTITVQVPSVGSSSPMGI
# T4: cynomolgus monkey FcγRIIa1 extracellular domain, His-tagged (cynomolgus monkey)
# T4 construct: also called cyno FcγRIIa1; FcgRIIa1; not shown: C-terminal His-tag
# T4 chain: T3 chain with T95P, A121T, S128A, P133H, N135D
# T5: human FcγRIIb extracellular domain, His-tagged (human, UniProt P31994 43-217)
# T5 construct: also called FcgRIIb (human); not shown: C-terminal His-tag
# T5 sequence: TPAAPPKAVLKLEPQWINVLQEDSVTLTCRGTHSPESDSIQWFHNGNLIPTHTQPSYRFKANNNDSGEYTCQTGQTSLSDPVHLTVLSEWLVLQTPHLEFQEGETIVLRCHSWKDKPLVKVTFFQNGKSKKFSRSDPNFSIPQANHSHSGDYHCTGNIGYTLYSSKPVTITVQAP
# T6: cynomolgus monkey FcγRIIb extracellular domain, His-tagged (cynomolgus monkey)
# T6 construct: also called cyno FcγRIIb; cynoFcγRIIb; not shown: C-terminal His-tag
# T6 chain: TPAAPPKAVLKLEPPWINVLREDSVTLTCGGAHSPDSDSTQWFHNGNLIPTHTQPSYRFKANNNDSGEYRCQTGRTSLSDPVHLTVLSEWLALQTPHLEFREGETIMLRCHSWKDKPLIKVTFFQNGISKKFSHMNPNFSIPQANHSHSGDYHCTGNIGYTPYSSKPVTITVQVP
# T7: cynomolgus monkey FcγRIIa2 extracellular domain, His-tagged (cynomolgus monkey)
# T7 construct: also called cyno FcγRIIa2; FcgRIIa2; not shown: C-terminal His-tag
# T7 chain: T3 chain with I127K, K130N, P133H, R142Q
# T8: cynomolgus monkey FcγRIIIaS extracellular domain, His-tagged (cynomolgus monkey, UniProt Q8SPW2 21-206 at identity 1.00))
# T8 construct: also called cyno FcγRIIIaS; FcgRIIIaS; not shown: C-terminal His-tag
# T8 chain: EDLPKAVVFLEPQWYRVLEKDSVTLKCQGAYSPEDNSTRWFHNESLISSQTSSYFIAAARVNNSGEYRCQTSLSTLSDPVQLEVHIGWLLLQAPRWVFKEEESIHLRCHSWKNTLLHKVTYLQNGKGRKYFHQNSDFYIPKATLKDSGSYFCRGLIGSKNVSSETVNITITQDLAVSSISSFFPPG
# B1: M103205H795-MY450 / M103202L889-SK1 (antibody, human IgG1, kappa)
# heavy: QVTLKESGPVLVKPTETLTLTCTVSGIDLSHDDISWVRQAPGKGLEWVGIISYAGSTYYASWAKGRLTISKDTSKNQVVLTMTNMDPVDTATYYCARGVPAYSHGGDLWGQGTLVTVSSASTKGPSVFPLAPSSKSTSGGTAALGCLVKDYFPEPVTVSWNSGALTSGVHTFPAVLQSSGLYSLSSVVTVPSSSLGTQTYICNVNHKPSNTKVDKKVEPKSCDKTHTCPPCPAMELLTGPSVFLFPPKPKDTLMISRTPEVTCVVVDVSDEDPEVKFNWYVDGVEVHNAKTKPREEQYNSTYRVVSVLTVLHQDWLNGKEYKCKVSNKALPKPIEKTISKAKGQPREPQVYTLPPSREEMTKNQVSLTCLVKGFYPSDIAVEWESNGQPENNYKTTPPVLDSDGSFFLYSKLTVDKSRWQQGNVFSCSVMHEALHNHYTQKSLSLSP
# light: DIVMTQSPATLSLSPGERATLSCTSSQSVYHANWLSWFQQKPGQPPKLLIYWASTLAYGVPSRFSGSGSGTDFTLTISSLQPEDAATYYCAGGYGGGRYAFGQGTKVEIKRTVAAPSVFIFPPSDEQLKSGTASVVCLLNNFYPREAKVQWKVDNALQSGNSQESVTEQDSKDSTYSLSSTLTLSKADYEKHKVYACEVTHQGLSSPVTKSFNRGEC
# notes: substitution positions are EU numbers
# B2: M103205H795-MY458 / M103202L889-SK1 (antibody, human IgG1, kappa)
# heavy: B1 heavy with M234Y
# light: B1 light
# notes: as for B1
# B3: M103205H795-MY452 / M103202L889-SK1 (antibody, human IgG1, kappa)
# heavy: B1 heavy with M234Q
# light: B1 light
# notes: as for B1
# B4: M103205H795-MY456 / M103202L889-SK1 (antibody, human IgG1, kappa)
# heavy: B1 heavy with M234V
# light: B1 light
# notes: as for B1
# B5: M103205H795-MY453 / M103202L889-SK1 (antibody, human IgG1, kappa)
# heavy: B1 heavy with M234R
# light: B1 light
# notes: as for B1
# B6: M103205H795-MY455 / M103202L889-SK1 (antibody, human IgG1, kappa)
# heavy: B1 heavy with M234T
# light: B1 light
# notes: as for B1
# B7: M103205H795-MY451 / M103202L889-SK1 (antibody, human IgG1, kappa)
# heavy: B1 heavy with M234N
# light: B1 light
# notes: as for B1
# B8: M103205H795-MY454 / M103202L889-SK1 (antibody, human IgG1, kappa)
# heavy: B1 heavy with M234S
# light: B1 light
# notes: as for B1
# B9: M103205H795-MY457 / M103202L889-SK1 (antibody, human IgG1, kappa)
# heavy: B1 heavy with M234W
# light: B1 light
# notes: as for B1
# Target: T9, human FcγRIIIaV extracellular domain, His-tagged (human, UniProt P08637 17-208)
# T9 construct: also called human FcγRIIIa (V158); FcgRIIIaV; not shown: C-terminal His-tag
# Assay: SPR (BIACORE), 25 C, antibody captured, FcgR as analyte; KD of SG1 divided by KD of variant;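 further: relative to parent M103205H795-SG1 carrying the SG1 human heavy chain constant region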
# Description: (§1) The kinetic analysis of interactions between these antibodies and FcγR was carried out using BIACORE® T200 or BIACORE® 4000 (GE Healthcare). HBS-EP+ (GE Healthcare) was used as the running buffer, and the measurement temperature was set to 25° C. A chip produced by immobilizing Protein A. Protein A/G or mouse anti-human IgG kappa light chain (BD Biosciences) onto a Series S Sensor Chip CM4 or CM5 (GE Healthcare) by the amine-coupling method was used. […] After the measurement, the antibody captured on the chip was washed off by allowing reaction with 10 mM glycine-HCl, pH1.5 and 25 mM NaOH so that the chip was regenerated and used repeatedly. The sensorgrams obtained as measurement results were analyzed by the 1:1 Langmuir binding model using the BIACORE® Evaluation Software to calculate the binding rate constant ka (L/mol/s) and dissociation rate constant kd (l/s), and the dissociation constant KD (mol/L) was calculated from these values. […] Regarding such interactions, KD values were calculated using the following 1:1 binding model described in BIACORE® T100 Software Handbook BR1006-48 Edition AE.
# T9 sequence (P08637 17-208 F176V): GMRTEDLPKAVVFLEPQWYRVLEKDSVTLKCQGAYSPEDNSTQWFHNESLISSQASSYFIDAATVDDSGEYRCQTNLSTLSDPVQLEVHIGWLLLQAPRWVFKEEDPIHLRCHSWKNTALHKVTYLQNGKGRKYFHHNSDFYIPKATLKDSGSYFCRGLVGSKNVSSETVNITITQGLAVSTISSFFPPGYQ
row,KD fold (SG1 = 1) [fold],Binder
1,0.3,B1
2,0.2,B2
3,0.1,B3
4,0.2,B4
5,0.1,B5
6,0.1,B6
7,0.1,B7
8,0.1,B8
9,0.2,B9

# Target: T1, human FcγRIIaR extracellular domain, …
# Assay: as above
# Description: as §1
row,KD fold (SG1 = 1) [fold],Binder
1,9.2,B1
2,6.5,B2
3,1.8,B3
4,3.8,B4
5,0.7,B5
6,2.4,B6
7,1.7,B7
8,1.4,B8
9,15.1,B9

# Target: T2, human FcγRIIaH extracellular domain, …
# Assay: as above
# Description: as §1
row,KD fold (SG1 = 1) [fold],Binder
1,5.8,B1
2,4.3,B2
3,1.9,B3
4,4.1,B4
5,0.9,B5
6,2.2,B6
7,1.7,B7
8,1.7,B8
9,5.3,B9

# Target: T3, cynomolgus monkey FcγRIIa3 …
# Assay: as above
# Description: as §1
row,KD fold (SG1 = 1) [fold],Binder
1,7.7,B1
2,5.7,B2
3,1.6,B3
4,5,B4
5,0.8,B5
6,3.1,B6
7,1.5,B7
8,1.2,B8
9,14.2,B9

# Target: T4, cynomolgus monkey FcγRIIa1 …
# Assay: as above
# Description: as §1
row,KD fold (SG1 = 1) [fold],Binder
1,2.3,B1
2,1.8,B2
3,0.9,B3
4,1.7,B4
5,0.5,B5
6,1,B6
7,0.9,B7
8,0.8,B8
9,4,B9

# Target: T5, human FcγRIIb extracellular domain, …
# Assay: as above
# Description: as §1
row,KD fold (SG1 = 1) [fold],Binder
1,9.3,B1
2,4.6,B2
3,1.6,B3
4,4.2,B4
5,0.7,B5
6,2.1,B6
7,1.5,B7
8,1.5,B8
9,13.9,B9

# Target: T6, cynomolgus monkey FcγRIIb extracellular …
# Assay: as above
# Description: as §1
row,KD fold (SG1 = 1) [fold],Binder
1,6.4,B1
2,4.2,B2
3,2,B3
4,3.5,B4
5,0.3,B5
6,2,B6
7,1.8,B7
8,1.3,B8
9,9,B9

# Target: T7, cynomolgus monkey FcγRIIa2 …
# Assay: as above
# Description: as §1
row,KD fold (SG1 = 1) [fold],Binder
1,4.6,B1
2,3.2,B2
3,1.6,B3
4,3,B4
5,0.5,B5
6,1.8,B6
7,1.2,B7
8,1.6,B8
9,6.1,B9

# Target: T8, cynomolgus monkey FcγRIIIaS …
# Assay: as above
# Description: as §1
row,KD fold (SG1 = 1) [fold],Binder
1,0.3,B1
2,0.3,B2
3,0.1,B3
4,0.2,B4
5,0.1,B5
6,0.1,B6
7,0.1,B7
8,0.1,B8
9,0.3,B9
